This note sets out measurements from US20190153108A1 (AbbVie / Abbott, published 2019).

This experiment concerns the target human Epidermal Growth Factor Receptor (huEGFR) over-expressed in mcl-1-/- mouse embryonic fibroblasts (human, UniProt P00533 25-1210). The experiment can be described thus: cell-based or functional assay.

Changes are numbered by the printed parent chain.

B1: AbG-ZT (antibody, V domains shown)
VH: EVQLQESGPGLVKPSQTLSLTCTVSGYSISNDFAWNWIRQLPGKGLEWMGYISYKGNTRYQPSLKSRITISRDTSKNQFFLKLNSVTAADTATYYCVTASRGLPYWGQGTLVTVSS
VL: DIQMTQSPSSMSVSVGDRVTITCHSSQDITYNIGWLQQKPGKSFKGLIYHGANLDDGVPSRFSGSGSGTDYTLTISSLQPEDFATYYCVQYDEFPWTFGGGTKLEIKR
modifications: synthon ZT on reduced interchain Cys
As to B1, the “huEGFR^+ mcl-1^-/- MEF EC50” value was 33 nM.

B2: AbB-WD (antibody, V domains shown)
VH: B1 VH with L41P, L103F, Y105W
VL: B1 VL with T30N, Y31S, A52T, D92A, E93Q
modifications: synthon WD on reduced interchain Cys
Take B2: the “huEGFR^+ mcl-1^-/- MEF EC50” value was 23 nM.

B3: AbA-TX (antibody, V domains shown)
VH: B1 VH with N31R, L41P, K55N, L103F
VL: B1 VL with T30N, Y31S, A52T, D92A, E93Q
modifications: synthon TX on reduced interchain Cys
For B3, the “huEGFR^+ mcl-1^-/- MEF EC50” value was determined as 16 nM.

B4: AbK-ZZ (antibody, V domains shown)
VH: B1 VH with N31R, L41P, K55N, L103F, Y105W
VL: B1 VL with I33V, A52S, D56H, E93D
modifications: synthon ZZ on reduced interchain Cys
In the case of B4, the “huEGFR^+ mcl-1^-/- MEF EC50” value was determined as 45 nM.

B5: AbG-TX (antibody, V domains shown)
VH: B1 VH
VL: B1 VL
modifications: synthon TX on reduced interchain Cys
As to B5, the “huEGFR^+ mcl-1^-/- MEF EC50” value was determined as 5.3 nM.

B6: AbK-YY (antibody, V domains shown)
VH: B1 VH with N31R, L41P, K55N, L103F, Y105W
VL: B1 VL with I33V, A52S, D56H, E93D
modifications: synthon YY on reduced interchain Cys
On to B6, for which the “huEGFR^+ mcl-1^-/- MEF EC50” value is 47 nM.

B7: AbB-CZ (antibody, V domains shown)
VH: B1 VH with L41P, L103F, Y105W
VL: B1 VL with T30N, Y31S, A52T, D92A, E93Q
modifications: synthon CZ on reduced interchain Cys
Regarding B7, the “huEGFR^+ mcl-1^-/- MEF EC50” value came out at 5.9 nM.

B8: AbG-SR (antibody, V domains shown)
VH: B1 VH
VL: B1 VL
modifications: synthon SR on reduced interchain Cys
Turning to B8, the “huEGFR^+ mcl-1^-/- MEF EC50” value is 7 nM.

B9: AbB-AAD (antibody, V domains shown)
VH: B1 VH with L41P, L103F, Y105W
VL: B1 VL with T30N, Y31S, A52T, D92A, E93Q
modifications: synthon AAD on reduced interchain Cys
As to B9, the “huEGFR^+ mcl-1^-/- MEF EC50” value worked out at 4.6 nM.

B10: AbG-KZ (antibody, V domains shown)
VH: B1 VH
VL: B1 VL
modifications: synthon KZ on reduced interchain Cys
Consider B10, for which the “huEGFR^+ mcl-1^-/- MEF EC50” value amounted to 96 nM.

B11: AbG-AAD (antibody, V domains shown)
VH: B1 VH
VL: B1 VL
modifications: synthon AAD on reduced interchain Cys
Consider B11, for which the “huEGFR^+ mcl-1^-/- MEF EC50” value stood at 108 nM.

B12: AbA-WD (antibody, V domains shown)
VH: B1 VH with N31R, L41P, K55N, L103F
VL: B1 VL with T30N, Y31S, A52T, D92A, E93Q
modifications: synthon WD on reduced interchain Cys
As for B12, the “huEGFR^+ mcl-1^-/- MEF EC50” value was found to be 304 nM.

B13: AbB-TV (antibody, V domains shown)
VH: B1 VH with L41P, L103F, Y105W
VL: B1 VL with T30N, Y31S, A52T, D92A, E93Q
modifications: synthon TV on reduced interchain Cys
Turning to B13, the “huEGFR^+ mcl-1^-/- MEF EC50” value was 2.4 nM.

B14: AbA-TV (antibody, V domains shown)
VH: B1 VH with N31R, L41P, K55N, L103F
VL: B1 VL with T30N, Y31S, A52T, D92A, E93Q
modifications: synthon TV on reduced interchain Cys
Consider B14, for which the “huEGFR^+ mcl-1^-/- MEF EC50” value is 3 nM.

B15: AbG-ZZ (antibody, V domains shown)
VH: B1 VH
VL: B1 VL
modifications: synthon ZZ on reduced interchain Cys
On to B15, for which the “huEGFR^+ mcl-1^-/- MEF EC50” value is 68 nM.

B16: AbG-XW (antibody, V domains shown)
VH: B1 VH
VL: B1 VL
modifications: synthon XW on reduced interchain Cys
B16: the “huEGFR^+ mcl-1^-/- MEF EC50” value came out at 19 nM.

B17: AbK-TV (antibody, V domains shown)
VH: B1 VH with N31R, L41P, K55N, L103F, Y105W
VL: B1 VL with I33V, A52S, D56H, E93D
modifications: synthon TV on reduced interchain Cys
Turning to B17, the “huEGFR^+ mcl-1^-/- MEF EC50” value was 0.15 nM.

B18: AbK-WD (antibody, V domains shown)
VH: B1 VH with N31R, L41P, K55N, L103F, Y105W
VL: B1 VL with I33V, A52S, D56H, E93D
modifications: synthon WD on reduced interchain Cys
In the case of B18, the “huEGFR^+ mcl-1^-/- MEF EC50” value is 35 nM.

B19: AbK-ZT (antibody, V domains shown)
VH: B1 VH with N31R, L41P, K55N, L103F, Y105W
VL: B1 VL with I33V, A52S, D56H, E93D
modifications: synthon ZT on reduced interchain Cys
Consider B19, for which the “huEGFR^+ mcl-1^-/- MEF EC50” value is 0.2 nM.

B20: AbG-YG (antibody, V domains shown)
VH: B1 VH
VL: B1 VL
modifications: synthon YG on reduced interchain Cys
As to B20, the “huEGFR^+ mcl-1^-/- MEF EC50” value was 1 nM.

B21: AbA-AAD (antibody, V domains shown)
VH: B1 VH with N31R, L41P, K55N, L103F
VL: B1 VL with T30N, Y31S, A52T, D92A, E93Q
modifications: synthon AAD on reduced interchain Cys
For B21, the “huEGFR^+ mcl-1^-/- MEF EC50” value came out at 65 nM.

B22: AbG-YY (antibody, V domains shown)
VH: B1 VH
VL: B1 VL
modifications: synthon YY on reduced interchain Cys
B22: the “huEGFR^+ mcl-1^-/- MEF EC50” value was above 500 nM.

B23: AbK-TX (antibody, V domains shown)
VH: B1 VH with N31R, L41P, K55N, L103F, Y105W
VL: B1 VL with I33V, A52S, D56H, E93D
modifications: synthon TX on reduced interchain Cys
B23: the “huEGFR^+ mcl-1^-/- MEF EC50” value is 0.79 nM.

B24: AbK-KZ (antibody, V domains shown)
VH: B1 VH with N31R, L41P, K55N, L103F, Y105W
VL: B1 VL with I33V, A52S, D56H, E93D
modifications: synthon KZ on reduced interchain Cys
Take B24: the “huEGFR^+ mcl-1^-/- MEF EC50” value was determined as 224 nM.

B25: AbG-AAA (antibody, V domains shown)
VH: B1 VH
VL: B1 VL
modifications: synthon AAA on reduced interchain Cys
Take B25: the “huEGFR^+ mcl-1^-/- MEF EC50” value worked out at 220 nM.

B26: AbB-LB (antibody, V domains shown)
VH: B1 VH with L41P, L103F, Y105W
VL: B1 VL with T30N, Y31S, A52T, D92A, E93Q
modifications: synthon LB on reduced interchain Cys
Take B26: the “huEGFR^+ mcl-1^-/- MEF EC50” value was 31 nM.

B27: AbK-XW (antibody, V domains shown)
VH: B1 VH with N31R, L41P, K55N, L103F, Y105W
VL: B1 VL with I33V, A52S, D56H, E93D
modifications: synthon XW on reduced interchain Cys
In the case of B27, the “huEGFR^+ mcl-1^-/- MEF EC50” value is 0.6 nM.

B28: AbK-AAD (antibody, V domains shown)
VH: B1 VH with N31R, L41P, K55N, L103F, Y105W
VL: B1 VL with I33V, A52S, D56H, E93D
modifications: synthon AAD on reduced interchain Cys
Consider B28, for which the “huEGFR^+ mcl-1^-/- MEF EC50” value was 0.4 nM.

B29: AbG-CZ (antibody, V domains shown)
VH: B1 VH
VL: B1 VL
modifications: synthon CZ on reduced interchain Cys
For the molecule B29, the “huEGFR^+ mcl-1^-/- MEF EC50” value worked out at 3.4 nM.

B30: AbG-WD (antibody, V domains shown)
VH: B1 VH
VL: B1 VL
modifications: synthon WD on reduced interchain Cys
With B30, the “huEGFR^+ mcl-1^-/- MEF EC50” value was found to be 5.8 nM.

B31: AbG-LB (antibody, V domains shown)
VH: B1 VH
VL: B1 VL
modifications: synthon LB on reduced interchain Cys
Take B31: the “huEGFR^+ mcl-1^-/- MEF EC50” value was found to be 24 nM.

B32: AbK-CZ (antibody, V domains shown)
VH: B1 VH with N31R, L41P, K55N, L103F, Y105W
VL: B1 VL with I33V, A52S, D56H, E93D
modifications: synthon CZ on reduced interchain Cys
B32: the “huEGFR^+ mcl-1^-/- MEF EC50” value came out at 0.1 nM.

B33: AbK-SE (antibody, V domains shown)
VH: B1 VH with N31R, L41P, K55N, L103F, Y105W
VL: B1 VL with I33V, A52S, D56H, E93D
modifications: synthon SE on reduced interchain Cys
Consider B33, for which the “huEGFR^+ mcl-1^-/- MEF EC50” value stood at 161 nM.

B34: AbG-SE (antibody, V domains shown)
VH: B1 VH
VL: B1 VL
modifications: synthon SE on reduced interchain Cys
For B34, the “huEGFR^+ mcl-1^-/- MEF EC50” value turned out to be 24 nM.

B35: AbB-TX (antibody, V domains shown)
VH: B1 VH with L41P, L103F, Y105W
VL: B1 VL with T30N, Y31S, A52T, D92A, E93Q
modifications: synthon TX on reduced interchain Cys
Consider B35, for which the “huEGFR^+ mcl-1^-/- MEF EC50” value turned out to be 11 nM.

B36: AbK-YG (antibody, V domains shown)
VH: B1 VH with N31R, L41P, K55N, L103F, Y105W
VL: B1 VL with I33V, A52S, D56H, E93D
modifications: synthon YG on reduced interchain Cys
On to B36, for which the “huEGFR^+ mcl-1^-/- MEF EC50” value came out at 37 nM.

B37: AbB-YY (antibody, V domains shown)
VH: B1 VH with L41P, L103F, Y105W
VL: B1 VL with T30N, Y31S, A52T, D92A, E93Q
modifications: synthon YY on reduced interchain Cys
As for B37, the “huEGFR^+ mcl-1^-/- MEF EC50” value came to 51 nM.

B38: AbA-LB (antibody, V domains shown)
VH: B1 VH with N31R, L41P, K55N, L103F
VL: B1 VL with T30N, Y31S, A52T, D92A, E93Q
modifications: synthon LB on reduced interchain Cys
As to B38, the “huEGFR^+ mcl-1^-/- MEF EC50” value turned out to be 27 nM.

B39: AbG-TV (antibody, V domains shown)
VH: B1 VH
VL: B1 VL
modifications: synthon TV on reduced interchain Cys
Turning to B39, the “huEGFR^+ mcl-1^-/- MEF EC50” value came to 2.6 nM.

B40: AbK-LB (antibody, V domains shown)
VH: B1 VH with N31R, L41P, K55N, L103F, Y105W
VL: B1 VL with I33V, A52S, D56H, E93D
modifications: synthon LB on reduced interchain Cys
Regarding B40, the “huEGFR^+ mcl-1^-/- MEF EC50” value was 17 nM.

B41: AbK-SR (antibody, V domains shown)
VH: B1 VH with N31R, L41P, K55N, L103F, Y105W
VL: B1 VL with I33V, A52S, D56H, E93D
modifications: synthon SR on reduced interchain Cys
Take B41: the “huEGFR^+ mcl-1^-/- MEF EC50” value came to 8.9 nM.

B42: AbA-ZT (antibody, V domains shown)
VH: B1 VH with N31R, L41P, K55N, L103F
VL: B1 VL with T30N, Y31S, A52T, D92A, E93Q
modifications: synthon ZT on reduced interchain Cys
Take B42: the “huEGFR^+ mcl-1^-/- MEF EC50” value is 104 nM.

B43: AbA-ZZ (antibody, V domains shown)
VH: B1 VH with N31R, L41P, K55N, L103F
VL: B1 VL with T30N, Y31S, A52T, D92A, E93Q
modifications: synthon ZZ on reduced interchain Cys
On to B43, for which the “huEGFR^+ mcl-1^-/- MEF EC50” value stood at 186 nM.

B44: AbK-AAA (antibody, V domains shown)
VH: B1 VH with N31R, L41P, K55N, L103F, Y105W
VL: B1 VL with I33V, A52S, D56H, E93D
modifications: synthon AAA on reduced interchain Cys
Turning to B44, the “huEGFR^+ mcl-1^-/- MEF EC50” value amounted to 3.4 nM.
